We go through one molecule from patent US20210063414A1, “METHODS FOR PREVENTING AND/OR TREATING BONE LOSS CONDITIONS BY MODULATING IRISIN” (Dana-Farber Cancer Institute, Inc., priority 2018, published 2021).

What all share (experiment): Crosslinking/co-immunoprecipitation/mass spectrometry (TMT quantitative proteomics) to identify irisin receptors
What all share (assay type): binding

The target of experiment [1] is T1, MLO-Y4 cell surface proteins (Mus musculus, UniProt P55292).
T1 construct: endogenous in cells; host or cells: MLO-Y4
T1 sequence (P55292 136-902): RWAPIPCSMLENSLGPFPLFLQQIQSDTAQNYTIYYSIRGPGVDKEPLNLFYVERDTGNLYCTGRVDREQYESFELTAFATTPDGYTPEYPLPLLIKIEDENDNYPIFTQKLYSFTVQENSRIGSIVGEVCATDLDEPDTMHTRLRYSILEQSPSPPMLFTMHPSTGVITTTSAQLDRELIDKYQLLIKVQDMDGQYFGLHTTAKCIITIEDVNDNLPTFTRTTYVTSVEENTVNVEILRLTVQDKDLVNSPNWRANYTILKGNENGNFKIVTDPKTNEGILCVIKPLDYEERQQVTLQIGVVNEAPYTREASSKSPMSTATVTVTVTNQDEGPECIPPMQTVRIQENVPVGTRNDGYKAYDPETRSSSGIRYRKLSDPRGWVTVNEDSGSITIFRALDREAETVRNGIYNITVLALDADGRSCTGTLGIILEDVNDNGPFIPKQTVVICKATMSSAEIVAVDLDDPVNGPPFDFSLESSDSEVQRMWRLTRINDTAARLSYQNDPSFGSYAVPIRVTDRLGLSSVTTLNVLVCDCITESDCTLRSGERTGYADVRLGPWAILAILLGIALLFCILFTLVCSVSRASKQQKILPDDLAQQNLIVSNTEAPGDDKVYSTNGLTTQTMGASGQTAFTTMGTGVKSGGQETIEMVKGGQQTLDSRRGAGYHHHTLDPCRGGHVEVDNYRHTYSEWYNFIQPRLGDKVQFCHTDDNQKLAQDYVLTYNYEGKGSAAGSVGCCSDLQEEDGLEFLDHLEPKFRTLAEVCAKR
As to conditions: co-precipitated protein Dsc2 (DSC2_MOUSE). Summed up: (§1)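 Relative protein abundance came from 6-plex TMT MS3 quantitation on an Orbitrap Fusion Lumos, after in-gel trypsin digestion of Coomassie-stained SDS-PAGE lanes. Input was a Ni-NTA pulldown (250 mM imidazole elution) of lysates from murine MLO-Y4 cells. These cells were treated on ice with His-tagged irisin or adipsin (10 nM, 20 min) in serum-free medium, then crosslinked with 1.5 mM DTSSP for 30 min.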

Experiment [2] has as its target T2, MLO-Y4 cell surface proteins (Mus musculus, UniProt O70404).
T2 construct: endogenous in cells; host or cells: MLO-Y4
T2 sequence (O70404 1-101): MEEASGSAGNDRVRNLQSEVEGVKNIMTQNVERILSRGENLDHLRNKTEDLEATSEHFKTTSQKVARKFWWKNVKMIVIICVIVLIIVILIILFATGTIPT
As to conditions: co-precipitated protein Vamp8 (VAMP8_MOUSE). The procedure, abridged: as §1

In experiment [3] the target is T3, MLO-Y4 cell surface proteins (Mus musculus, UniProt Q66L42).
T3 construct: endogenous in cells; host or cells: MLO-Y4
T3 sequence (Q66L42 whole entry): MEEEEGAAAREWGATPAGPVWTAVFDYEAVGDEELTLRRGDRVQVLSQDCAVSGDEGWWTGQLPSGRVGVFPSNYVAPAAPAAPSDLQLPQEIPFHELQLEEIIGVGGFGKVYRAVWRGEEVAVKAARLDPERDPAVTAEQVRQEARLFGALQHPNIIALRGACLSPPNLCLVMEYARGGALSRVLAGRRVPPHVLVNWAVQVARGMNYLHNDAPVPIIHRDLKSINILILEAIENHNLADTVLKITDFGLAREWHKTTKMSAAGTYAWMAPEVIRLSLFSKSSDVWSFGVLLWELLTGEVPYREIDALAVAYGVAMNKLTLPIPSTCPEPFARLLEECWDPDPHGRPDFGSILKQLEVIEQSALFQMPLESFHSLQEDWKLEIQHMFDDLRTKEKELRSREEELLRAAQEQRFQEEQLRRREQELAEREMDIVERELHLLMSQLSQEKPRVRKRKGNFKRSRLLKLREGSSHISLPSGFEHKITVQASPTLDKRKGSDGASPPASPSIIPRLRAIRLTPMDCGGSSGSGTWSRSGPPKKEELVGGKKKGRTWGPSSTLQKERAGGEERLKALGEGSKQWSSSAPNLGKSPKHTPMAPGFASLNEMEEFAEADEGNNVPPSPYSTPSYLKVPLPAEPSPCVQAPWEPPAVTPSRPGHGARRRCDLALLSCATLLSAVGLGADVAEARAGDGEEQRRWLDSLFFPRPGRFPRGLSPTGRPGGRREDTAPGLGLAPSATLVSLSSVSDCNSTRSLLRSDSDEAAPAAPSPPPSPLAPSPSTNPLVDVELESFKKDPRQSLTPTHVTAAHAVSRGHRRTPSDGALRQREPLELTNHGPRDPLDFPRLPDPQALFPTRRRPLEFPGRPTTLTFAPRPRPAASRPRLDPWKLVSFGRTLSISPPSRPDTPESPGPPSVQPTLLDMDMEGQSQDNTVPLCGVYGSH
The conditions noted are these: co-precipitated protein Map3k10 (M3K10_MOUSE). Summed up: as §1

B1: irisin: secreted cleaved form of FNDC5; recombinant human/mouse irisin with C-terminal his tag produced in HEK293 cells (protein)
chain: DSPSAPVNVTVRHLKANSAVVSWDVLEDEVVIGFAISQQKKDVRMLRFIQEVNTTTRSCALWDLEEDTEYIVHVQAISIQGQSPASEPVLFKTPREAEKMASKNKDEVTMKE
modifications: left off: small tags and cut ends
notes: secreted cleaved form of FNDC5; recombinant human/mouse irisin with C-terminal his tag produced in HEK293 cells
Take B1: the TMT signal-to-noise ratio came to 3.51 in experiment [1], 169.775 in experiment [2] and 3.455 in experiment [3]. Besides, the “irisin/adipsin TMT signal-to-noise ratio” value in experiment [1] is 0.037; in experiment [2], 0.566; in experiment [3] it was 0.032.
